The source of these data is patent publication US20170024512A1.

The experiment deals with RecBCD (endogenous exonuclease of the E. coli cell-free extract) (E. coli) (UniProt P08394). The experiment in a line: cell-based or functional assay.
UniProt P08394, sequence (P08394 2-1180 limits assumed, chain 1 of 3): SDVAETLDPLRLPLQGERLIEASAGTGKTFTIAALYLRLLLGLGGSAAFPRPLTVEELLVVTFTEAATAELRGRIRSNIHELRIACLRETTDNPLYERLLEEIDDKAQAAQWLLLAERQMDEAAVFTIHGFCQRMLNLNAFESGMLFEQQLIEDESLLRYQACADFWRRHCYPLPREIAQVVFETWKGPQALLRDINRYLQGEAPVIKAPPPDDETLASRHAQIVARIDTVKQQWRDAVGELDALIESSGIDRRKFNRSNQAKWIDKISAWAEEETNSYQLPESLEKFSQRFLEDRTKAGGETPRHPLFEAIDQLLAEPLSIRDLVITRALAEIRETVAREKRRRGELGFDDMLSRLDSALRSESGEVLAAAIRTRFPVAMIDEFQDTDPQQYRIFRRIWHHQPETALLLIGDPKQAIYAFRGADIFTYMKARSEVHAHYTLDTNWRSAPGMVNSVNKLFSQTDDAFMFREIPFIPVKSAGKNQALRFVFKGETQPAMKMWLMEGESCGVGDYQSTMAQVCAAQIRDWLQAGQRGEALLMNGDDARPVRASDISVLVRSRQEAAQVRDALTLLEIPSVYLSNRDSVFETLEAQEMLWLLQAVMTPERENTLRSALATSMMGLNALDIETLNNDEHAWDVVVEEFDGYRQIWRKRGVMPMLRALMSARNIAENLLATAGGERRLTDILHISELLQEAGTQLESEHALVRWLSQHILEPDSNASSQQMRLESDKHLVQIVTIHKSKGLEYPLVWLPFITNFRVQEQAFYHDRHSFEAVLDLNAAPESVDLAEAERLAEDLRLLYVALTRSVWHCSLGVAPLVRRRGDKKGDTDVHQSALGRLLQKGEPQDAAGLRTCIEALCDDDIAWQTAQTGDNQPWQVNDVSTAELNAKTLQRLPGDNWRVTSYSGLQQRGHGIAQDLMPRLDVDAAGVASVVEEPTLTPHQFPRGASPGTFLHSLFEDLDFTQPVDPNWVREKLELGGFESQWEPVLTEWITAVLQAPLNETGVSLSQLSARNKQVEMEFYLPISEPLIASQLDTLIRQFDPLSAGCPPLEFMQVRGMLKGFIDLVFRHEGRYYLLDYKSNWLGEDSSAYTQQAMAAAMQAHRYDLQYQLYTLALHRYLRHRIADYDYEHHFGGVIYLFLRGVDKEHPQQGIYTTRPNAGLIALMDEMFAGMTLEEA
UniProt P08394, sequence (P07648 whole entry, chain 2 of 3, further chain): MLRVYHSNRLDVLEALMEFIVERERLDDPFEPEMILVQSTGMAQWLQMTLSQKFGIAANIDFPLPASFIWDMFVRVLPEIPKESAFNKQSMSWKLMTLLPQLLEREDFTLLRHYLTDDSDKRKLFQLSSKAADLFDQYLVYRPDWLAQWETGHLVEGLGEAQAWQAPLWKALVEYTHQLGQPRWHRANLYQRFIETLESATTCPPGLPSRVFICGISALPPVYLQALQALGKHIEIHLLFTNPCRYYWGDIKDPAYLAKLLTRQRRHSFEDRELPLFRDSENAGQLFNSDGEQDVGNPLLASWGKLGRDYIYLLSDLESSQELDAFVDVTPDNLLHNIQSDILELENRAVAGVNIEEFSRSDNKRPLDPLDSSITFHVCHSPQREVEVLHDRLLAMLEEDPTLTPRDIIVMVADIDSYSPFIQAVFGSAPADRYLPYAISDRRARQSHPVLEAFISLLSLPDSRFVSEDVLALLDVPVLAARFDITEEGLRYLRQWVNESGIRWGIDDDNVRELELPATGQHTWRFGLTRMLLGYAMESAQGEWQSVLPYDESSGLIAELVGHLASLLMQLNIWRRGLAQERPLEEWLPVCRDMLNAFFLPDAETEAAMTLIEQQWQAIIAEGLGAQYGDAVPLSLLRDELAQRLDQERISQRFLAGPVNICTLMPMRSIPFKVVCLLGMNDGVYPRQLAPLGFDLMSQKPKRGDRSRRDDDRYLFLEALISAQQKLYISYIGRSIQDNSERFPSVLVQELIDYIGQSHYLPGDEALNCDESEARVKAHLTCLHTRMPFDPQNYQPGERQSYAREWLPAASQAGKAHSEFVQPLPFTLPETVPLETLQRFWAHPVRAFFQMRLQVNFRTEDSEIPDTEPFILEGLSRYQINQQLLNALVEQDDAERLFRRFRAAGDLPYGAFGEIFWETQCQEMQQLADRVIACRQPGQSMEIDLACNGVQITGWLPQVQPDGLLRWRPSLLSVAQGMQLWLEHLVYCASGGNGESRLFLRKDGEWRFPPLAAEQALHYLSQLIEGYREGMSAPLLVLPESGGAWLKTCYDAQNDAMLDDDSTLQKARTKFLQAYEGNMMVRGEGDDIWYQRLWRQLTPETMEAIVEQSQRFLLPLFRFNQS
UniProt P08394, sequence (P04993 whole entry, chain 3 of 3, further chain): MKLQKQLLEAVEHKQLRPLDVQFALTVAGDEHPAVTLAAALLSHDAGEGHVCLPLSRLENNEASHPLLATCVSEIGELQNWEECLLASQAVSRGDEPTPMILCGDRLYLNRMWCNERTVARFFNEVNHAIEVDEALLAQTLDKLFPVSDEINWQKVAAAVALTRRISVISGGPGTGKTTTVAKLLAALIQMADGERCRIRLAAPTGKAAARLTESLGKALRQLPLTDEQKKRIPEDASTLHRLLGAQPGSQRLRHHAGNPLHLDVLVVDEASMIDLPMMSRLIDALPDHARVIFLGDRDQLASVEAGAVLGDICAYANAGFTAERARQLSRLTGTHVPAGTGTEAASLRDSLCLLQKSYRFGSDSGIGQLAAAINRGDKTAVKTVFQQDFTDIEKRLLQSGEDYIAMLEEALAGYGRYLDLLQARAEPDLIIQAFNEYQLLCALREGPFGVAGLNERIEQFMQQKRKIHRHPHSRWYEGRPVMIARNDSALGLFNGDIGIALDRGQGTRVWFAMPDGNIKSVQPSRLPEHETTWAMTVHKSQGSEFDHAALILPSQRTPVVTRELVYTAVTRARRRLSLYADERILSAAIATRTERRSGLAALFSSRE

For “gamS protein (GamS, a truncated form of lambda gam) (from UniProt P03702 1-98)”, the protection of linear DNA from degradation in TX-TL (endpoint deGFP expression from 2 nM linear DNA); gamS working concentration worked out at 3.5 µM.
